Paper PMC10786404

Legend:
[1] = biological target: protease activated receptor 2 (PAR2) (human (endogenous in Caco-2)) (UniProt P55085)
[2] = biological target: protease activated receptor 2 (PAR2) (human (endogenous in Caco-2)) (UniProt P55085); remark: listed apart in the source
[3] = biological target: protease activated receptor 2 (PAR2) (human (endogenous in Caco-2)) (UniProt P55085); remark: listed apart in the source
[4] = biological target: protease activated receptor 2 (PAR2) (human (endogenous in Caco-2)) (UniProt P55085); remark: listed apart in the source
[5] = biological target: protease activated receptor 2 (PAR2) (human (endogenous in Caco-2)) (UniProt P55085); remark: listed apart in the source

Chain of UniProt P55085 (P55085 37-397): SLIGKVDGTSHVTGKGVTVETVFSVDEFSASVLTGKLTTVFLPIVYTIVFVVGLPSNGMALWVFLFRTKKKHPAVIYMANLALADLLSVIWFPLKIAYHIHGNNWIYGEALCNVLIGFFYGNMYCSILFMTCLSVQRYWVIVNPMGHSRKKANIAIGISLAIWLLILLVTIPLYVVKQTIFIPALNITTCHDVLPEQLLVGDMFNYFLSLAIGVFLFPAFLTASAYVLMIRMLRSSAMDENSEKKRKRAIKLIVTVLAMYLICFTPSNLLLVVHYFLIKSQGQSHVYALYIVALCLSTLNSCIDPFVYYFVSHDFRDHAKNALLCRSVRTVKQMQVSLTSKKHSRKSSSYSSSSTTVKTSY

## Recombinant Trichinella spiralis trypsin, C-terminal domain (rTsTryp) (from UniProt E5RYV9 1-667)
[1]
  ZO-1 mRNA (qPCR) in Caco-2 cells treated with rTsTryp, against the DMSO group; restored by AZ3451 pretreatment: 55.9 % decrease
  occludin mRNA (qPCR) in Caco-2 cells treated with rTsTryp, against the DMSO group; restored by AZ3451 pretreatment: 52.4 % decrease
[2]
  ZO-1 protein (Western blot) in the Caco-2 monolayer treated with rTsTryp, against the DMSO group; abrogated by AZ3451 pretreatment: 56.5 % decrease
  occludin protein (Western blot) in the Caco-2 monolayer treated with rTsTryp, against the DMSO group; abrogated by AZ3451 pretreatment: 49 % decrease
[3]
  flux of 4 kDa FITC-dextran (FD4) through the Caco-2 monolayer, rTsTryp group against the PBS group (fold of the PBS group): 2
[4]
  level of phosphorylated ERK1/2 (Western blot) in the Caco-2 monolayer after 2 h with rTsTryp, against the PBS group: 210 % increase
[5]
  promotion of IIL larval invasion of the Caco-2 monolayer by 12, 16 and 20 μg/ml rTsTryp, against the PBS group: 40.2 % promotion
